Assay results taken from IntAct's records for PubMed 21565615.

B1: Protein c-Fos (Mus musculus), P01101 (parent)
chain: MMFSGFNADYEASSSRCSSASPAGDSLSYYHSPADSFSSMGSPVNTQDFCADLSVSSANFIPTVTAISTSPDLQWLVQPTLVSSVAPSQTRAPHPYGLPTQSAGAYARAGMVKTVSGGRAQSIGRRGKVEQLSPEEEEKRRIRRERNKMAAAKCRNRRRELTDTLQAETDQLEDEKSALQTEIANLLKEKEKLEFILAAHRPACKIPDDLGFPEEMSVASLDLTGGLPEASTPESEEAFTLPLLNDPEPKPSLEPVKSISNVELKAEPFDDFLFPASSRPSGSETSRSVPDVDLSGSFYAADWEPLHSNSLGMGPMVTELEPLCTPVVTCTPGCTTYTSSFVFTYPEADSFPSCAAAHRKGSSSNEPSSDSLSSPTLLAL

Variants of: B1
Conditions: with esr2_mouse Esr2, O08537
esr2_mouse Esr2, O08537, sequence (O08537 whole entry): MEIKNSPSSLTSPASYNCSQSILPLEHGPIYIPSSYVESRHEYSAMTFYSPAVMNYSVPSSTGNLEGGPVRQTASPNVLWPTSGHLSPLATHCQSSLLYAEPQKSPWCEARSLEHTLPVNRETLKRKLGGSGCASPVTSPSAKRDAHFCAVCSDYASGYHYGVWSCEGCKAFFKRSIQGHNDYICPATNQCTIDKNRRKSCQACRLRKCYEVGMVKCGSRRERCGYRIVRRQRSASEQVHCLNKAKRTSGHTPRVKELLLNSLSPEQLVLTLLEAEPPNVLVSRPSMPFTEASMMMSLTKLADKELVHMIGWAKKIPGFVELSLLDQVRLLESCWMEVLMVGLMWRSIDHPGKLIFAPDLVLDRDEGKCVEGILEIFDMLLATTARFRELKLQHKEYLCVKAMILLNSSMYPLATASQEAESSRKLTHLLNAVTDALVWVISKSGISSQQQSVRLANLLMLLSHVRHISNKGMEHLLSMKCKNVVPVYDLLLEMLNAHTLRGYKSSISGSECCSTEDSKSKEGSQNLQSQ

Variant | effect of a mutation on the interaction
S362E | increasing interaction
S362A | decreasing interaction
